Reference: the DeepSol protein solubility set

Assay: soluble on expression in E. coli; label from the status in PepcDB or PDB records

Row | Sequence | soluble on expression in E. coli
1 | MVFDPDFLNNNSEEHTNQLLNEHFGEHPNQLLKYLQHQSPEVLARVAQSVTPEIKQIISQNVQGLVGMLPAESFNVQITTDRDNLAGLLASAMMTGYFLRQMEQRMQLDHLSNQ | not soluble
2 | MHHHHHHMKHNQLPLVIEFTEQTAPKIFGGEIKTHILLFLPKSVSDYDGKLSNFKTAAESFKGKILFAFIDSDHTDNQRILEFFGLKKEECPAVRLITLEEEMTKYKPESEELTAERITEFCHRFLEGKIKPHLMSQELPEDWDKQP | soluble
3 | MNRTLPLLPALALGVLLGLPASGQATCYRVTSVGSETTTSNTQIRPGEGTAGSWTGACDTCNGSLGLPSVVNVSDESFQPYPTLIASAVAPLTQYGATGGYDPERVFFRCSAGDAVYEMFSTNGDDLYSGYYTGADTVGNDIGLQDAYRTAWPNVLLRLTNVETGETITPIWKERQLSGLDIDSRGFQLVKAKNLAAVRAELYSAPLEAIRYYSPTILSQPYSYTQPAAYIAIKGPGLTAPTVGQAHVGGNWGGWYSNWPGAIGLYRYVTLKRYPTCAVMTVTPHVQFPSITLAEIDSGGVREAPFELTFKCQSGMTNGTGAGATALGIRVSSGALAASPALGLVNASGGLSYLLSDRYGEPGIARGVGIRIYRDGTPMTLLANENSAGGSNAEATGWYPAIGGATQANGGSGGIDLYRETFRARLEKLALGSQPGVTAGRVEATAQVVIRVQ | not soluble
4 | SLELWLNKATDPSMSEQDWSAIQNFCEQVNTDPNGPTHAPWLLAHKIQSPQEKEALYALTVLEMCMNHCGEKFHSEVAKFRFLNELIKVLSPKYLGSWATGKVKGRVIEILFSWTVWFPEDIKIRDAYQMLKKQGIIKQDPKLPVDKI | soluble
5 | GPGSMPVPSYWRMACRSYQFTICATSYLLRWRAPAVTQGSGALVKLPHLVRGARLQRGLLVTDAMIMKLGLVDDFIDEMKKQGTELAIYKDVLPNPTIDMVEEASVLYRKNRCDYLVAVGGGSVMDCAKLIGVRQARPRTPLPYMRGLLRVLWPLPPLIAVPTTAGTGSECTIAAVVSDPAKKDKLVVMDPFLTPSHCVLDPALTLTLPKFVTATAGMDALTHVVEAYTNVFHYRTVDKAALRAMELLAKYLPCAYKDGSNLEAREKMLHASYLAGLSFTRAGVGNVHAAAHAVGGLYNAPHGYVNAVILPHVLDMYGSAAHKSLARLAEAANIVGANDAEKAVNFISWVREMNAQMQIPTTLGAGDSRWAPQEEDIPFLVKHAVTEANPFYAVPVIFGEEEMTELFRRVM | not soluble
6 | MNQYPDFDQKLYDDLRRGKEYAFAAVFDRYHRLLYTIAYRFLKSEEEAEDAVQYLFMKLWEQRETFSFESGIRSLLFTILKNYILNELRHRNLVFEKLYEMAQQVNDEDEDAFLTRFEHGELRKSLRVAIDKLPPQKQKICLLKIEYGLSNQEIADRMGITVPTVKSHYTQAIKALRNAIESLIMWFPVIWIYLID | not soluble
7 | MRTIEFQAKQLLMEKLDKNLLDHAKSLTDGNGPQIVDVYGLQQLAEVHCYLKTTHQFDPAEVEALLQFADPLEAACHCWEMNTHEYSFPICDLLRETRARELFELAKPEPPAKLSVREQLRAAVKEARQNLAPEERTKGGEAR | not soluble
8 | MKSLQALFGGTFDPVHYGHLKPVETLANLIGLSRVIIMPNNVPPHRPQPEASSAQRKYMLELAIADKPLFTLDERELQRNAPSYTAQTLKAWREEQGPEAPLAFIIGQDSLLNFPTWHDYDTILDNTHLIVCRRPGYPLEMTQAQHQQWLEQHLTHTPDDLHQLPAGKIYLAETPWLNISATLIRERLEKGESCDDLLPENVLNYINQQGLYR | not soluble
9 | MRSHNLFGDMCEAFMTKYVMTELRPKTQTLYKSTFNKYVTPYKNIDIERYKYTDWIAYFDWVKKESSSANAGSVLKRFKAVANWAKARGQIKHSHLIDIPIKLEHHHHHH | not soluble
10 | MVKETEYYDILGIKPEATPTEIKKAYRRKAMETHPDKHPDDPDAQAKFQAVGEAYQVLSDPGLRSKYDQFGKEDAVPQQGFEDASEYFT | not soluble
11 | MTGFDFSDKTVWVTGAGKGIGYATALAFVDAGARVIGFDREFTQENYPFATEVMDVADAAQVAQVCQRVLQKTTRLDVLVNAAGILRMGATDALSVDDWQQTFAVNVGGAFNLFSQTMAQFRRQQGGAIVTVASDAAHTPRIGMSAYGASKAALKSLALTVGLELAGCGVRCNVVSPGSTDTDMQRTLWVSEDAEQQRIRGFGEQFKLGIPLGKIARPQEIANTILFLASDLASHITLQDIVVDGGSTLGA | not soluble
12 | MSLSDLSAFAVTQKWPAQFPEWIQLYSLPTPNGVKVSVMLEEIGLPYEAHRVSFETQDQMTPEFLSVSPNNKIPAILDPHGPGDQPLALFESGAILIYLADKSGQLLAQESAARYETIQWLMFQMGGIGPMFGQVGFFNKFAGREYEDKRPLERYVNEAKRLLGVLDKHLGGREWIMGERYTIADIATFPWIRNLIGFYEAGELVGIDNFPEVKRVLAKFVARPAVIRGLEIPKVSEGHHHHHH | soluble
13 | MKETIMNQKLTKRQAEVHTGRKGTAHRKKVVHTTAEDKKFQFSLKKLGVNNIPGIEEVNMFTHQGTVIHFNNPEVQASLAANTFTMTGHAETKQLTEMLLSIDHKPVLQMV | soluble
14 | MSLKPWLLMMLTTLLVGCGGTPQPKVSFYLLPNNPELSEHIQPKTLPLLVVQPVELAAYLDTQGIVYRQSETQVIQARQNQWAQRLSPQLTQRITNDLRRKQSRYWPAPLNASSIQQEHWKLQVRLQRFNGVYTGNAEVAGNWELLNPKGESMLNQEFSFQVPLKDTGYPALVEALSAGVDQLSTQIETQLVTREGHHHHHH | soluble
15 | MSGGKLPEGWATSTINEMCNLNPKLKLDDDLDVGFMPMAGVPTTYLGKCNFETKKWSEVKKGFTQFQNDDVIFAKITPCFENGKAVVIKEFPNGYGAGSTEYYVLRSINGLINPHWLFALVKTKDFLTNGALNMSGSVGHKRVTKEFLENYGVPVPPLAEQKVIAEKLDTLLAQVDSTKARLEQIPQILKRFRQSVIVAAVNGQLTKELHKKNKFKLTELNISIPSLWKISEIGQFADVKGGKRLPKGESLIAENTGFPYIRAGQLKNGTVLPEGQLYLEEYIQKSISRYTVSSGDLYITIVGACIGDAGIIPDVYNNANLTENAAKICNLNENIFNRFLSLWLRSSYLQDIINSEIKSGAQGKLALARIKSLPLILPPLQEQHEIVRRVEQLFAYADTIEKQVNNALTRVNSLTQSILAKAFRGELTAQWRAENPELISGENSAAALLEKIKAERAASGGKKTSRKKA | not soluble
16 | MSLRARYKQLVDTFAADIRTGILAPGTRLPTHRELAAREGLALVTASRVYAELEAMGLVSGETGRGTYVRETALPPGQGVDQPATAPGTLDLNFNYPALPGQAELLRSALRQLAATGDLEALLRYQPHAGRSHERATVARYLAGHGLVVEGEQVLLVSGAQHGLSTTLMALLRPGDVVAVDALTYPGFKVVAEAHGLELLAIPLSEQGPDLEAFERLCQRRRVRAVYAMPTLHNPMGWVLDLAWRQRLVAIGRAHGLLIIEDAAYAFLAQDPPAPLAALAPEITVYISGFSKNVATGLRVGYVVAPPAWVALIERAIRTSTWNTPGVMTAMACAWIEDGTVARLEHQKREDAQARQALAREALAGLAYVSHPNSYFLWLPLPEEVRADQVAMALLREKVSVSTAEPFVGAGPVPHAIRLALGSVAMADLGVALARVRQVIGRYAFEGHHHHHH | soluble
17 | ATIKDVAKRANVSTTTVSHVINKTRFVAEETRNAVWAAIKELHYSPSAVARSLKVNHTKSIGLLATSSEAAYFAEIIEAVEKNCFQKGYTLILGNAWNNLEKQRAYLSMMAQKRVDGLLVMCSEYPEPLLAMLEEYRHIPMVVMDAGEAKADFTDAVIDNAFEGGYMAGRYLIERGHREIGVIPGPLERNTGAGRLAGFMKAMEEAMIKVPESWIVQGDFEPESGYRAMQQILSQPHRPTAVFCGGDIMAMGALCAADEMGLRVPQDVSLIGYDNVRNARYFTPALTTIHQPKDSLGETAFNMLLDRIVNKREEPQSIEVHPRLIERRSVADGPFRDYRR | soluble
18 | WLLAELTYRCPLQCPYCSNPLDFARQDKELTTEQWIEVFRQARAMGSVQLGFSGGEPLTRKDLPELIRAARDLGFYTNLITSGIGLTESKLDAFSEAGLDHIQISFQASDEVLNAALAGNKKAFQQKLTMAKAVKARDYPMVLNFVLHRHNIDQLDKIIELCIELEADDVELATCQFYGWAFLNREGLLPTREQIARAEQVVADYRQKMAASGNLTNLLFVTPDYYEERPKGCMGGWGSIFLSVTPEGTALPCH | not soluble
19 | GSLLKPARFMCLPCGIAFSSPSTLEAHQAYYCSHRI | soluble
